The values below are quoted from earlier work in article PMC7411019.

As usually defined, the Kd is a measure of binding affinity in units of concentration.

The data set has as its target cTnI-binding peptide.

Cardiac troponin I 114-144, sequence (P19429 114-144): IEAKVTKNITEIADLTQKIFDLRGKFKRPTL

For the substance “Cardiac troponin I 114-144 (from UniProt P19429)”, the Kd is 0.27 nM.
